Data: article PMC10570013

Target: Nsp8 NTD (SARS-CoV-2, UniProt P0DTD1)
Assay: NMR

B1: model dsRNA (dsRNA)
RNA 1: GAUGCUACGCGGUAGUA
RNA 2: GUACUACCGCGUAGCAUC
- Kd: ~14.1 µM
